Experimental data taken from US20200291128A1 (ABEXXA BIOLOGICS, published 2020).

Molecular target: T1, HLA-E*0103 (recombinant, refolded with peptide into monomer complexes)
T1 construct: The paragraph names only the allele
Assay: peptide binding and peptide/HLA-E refold into monomer complexes

Binder: YLLPAIVHI [peptide YLLPAIVHI from the protein RNA Helicase]
- binding result: binds
